Assay results: patent publication US6855515B1, “Autoantigenic fragments, methods and assays” (Merck & Co., Inc., priority 1998, dated 2005)
“Also recorded” adds a separate entry of the source.

What was measured:
[1] = tested on: SP1; test: DNA-PKcs kinase assay (SP1 phosphorylation); format: biochemical; details: 12.5 nM granzyme B, 13.5 min, 37° C., then DNA, ATP
Procedure: Kinase assays were performed on intact DNA-PKcs or DNA-PKcs that had first been cleaved by granzyme B as follows. Reaction mixtures containing 10 mM Hepes pH 7.4, 2 mM MgCl2, 10 mM KCl, 2.7 mM DTT, and 50 ng DNA-PKcs in the absence or presence of 12.5 nM purified granzyme B, were incubated for 13.5 min at 37° C. Kinase reactions were subsequently initiated by adding 100 ng SP1 and 150 μM ATP containing 1.5 μCi [^32P]-ATP (3000 Ci/mmol), in the absence or presence of 10 μg/ml sheared herring sperm DNA (Promega). Samples were incubated at 37° C. for 10 min (well within the linear range of the assay, data not shown), before terminating the reactions by adding SDS gel buffer and boiling. After electrophoresing the samples on 8% SDS-PAGE, SP1 phosphorylation was detected by autoradiography, and quantitated by densitometry. Cleaved status of the kinase was confirmed in parallel by immunoblotting.

[2] = biological target: SP1; details: Casciola-Rosen et al., 1996; cited from earlier work
[3] = biological target: T1, granzyme B (Homo sapiens, UniProt P10144); test: In vitro cleavage of substrates by purified granzyme B, kcat/Km from densitometry; format: biochemical; details: in the presence of 10 μg/ml DNA
T1 construct: Some of these preparations were used for the further purification of granzyme B (Tschopp, 1994); endogenous in cells; host or cells: YT cells (human NK cell line), cytoplasmic granules
Procedure: cDNAs for caspase-3, caspase-7, NuMA and PARP were used to drive the synthesis of [^35S]methionine-labeled proteins by coupled transcription/translation in rabbit reticulocyte lysates. For all purified substrates, cleavage reactions were performed in buffer consisting of 50 mM Hepes pH 7.4, 10% sucrose and 5 mM DTT in the presence of the granzyme B concentrations indicated in FIG. 1. After incubation at 37° C. for 15 min, reactions were terminated and samples were electrophoresed on 10% (DNA-PKcs, NuMA), 12% (PARP) or 15% (caspases 3 and 7) SDS-polyacrylamide gels. Radiolabeled proteins and their fragments were visualized by fluorography. Intact and cleaved DNA-PKcs were visualized by immunoblotting with monoclonal antibody 18-2 (Casciola-Rosen et al., 1995).
Catalytic constant (kcat/km) values were calculated essentially as described (Casciola-Rosen et al., 1996). Briefly, subsaturating substrate concentrations were used in each in vitro reaction, and product appearance was assumed to be a first order process. […] Several appropriate densitometry systems are available, e.g. PDI Discovery System, with Quantity One Software, Protein Databases, Inc., (Huntington Station, N.Y.). kcat/Km values were calculated by fitting the dose-response data to the first order rate equation: percent substrate cleavage=100*((1^-e-((kcat*[E]/Km)*time)). […]

T1 sequence (P10144 21-247): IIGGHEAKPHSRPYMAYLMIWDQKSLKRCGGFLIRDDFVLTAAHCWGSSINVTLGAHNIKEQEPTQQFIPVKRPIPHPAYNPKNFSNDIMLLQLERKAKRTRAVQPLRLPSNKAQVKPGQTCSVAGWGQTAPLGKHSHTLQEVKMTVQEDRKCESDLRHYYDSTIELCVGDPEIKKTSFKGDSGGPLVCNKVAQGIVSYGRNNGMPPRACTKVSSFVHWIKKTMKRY

For “DNA-dependent protein kinase catalytic subunit [DNA-PKCS]”, the “kinase activity of DNA-PKcs after cleavage by granzyme B” value [1] is listed as “entirely abolished; also recorded: completely abrogates”, the “kinase activity of DNA-PKcs after caspase-3 cleavage” value [2] is listed as “approximately 60 % of control levels” and the “decrease of DNA-PKcs cleavage by granzyme B” value [3] is listed as “approximately 90%”.
